# Patent publication US20230136301A1, “Corticosteriod Reduction in Treatment with Anti-CD38 Antibody” (Janssen Biotech, Inc., priority 2021, published 2023)
# Several values for one entry are separate records, joined by “and”; a condition that tells them apart may be missing. Equal values may be shown once.
# Key:
# [1] = tested on: patients with RRMM; assay: PAVO Part 2: DARA SC safety and efficacy
# [2] = tested on: patients with RRMM; assay: PAVO Part 3: treatment-emergent adverse events with DARA SC and corticosteroid tapering
# Description: The PAVO (MMY1004) trial is an open-label, nonrandomized, multicenter, phase lb study consisting of 3 parts. […] Safety was assessed, with an emphasis on IRRs, while corticosteroids were reduced and discontinued.
# The purpose of Part 3 was to evaluate the safety of daratumumab 1,800 mg SC delivery without predose and postdose corticosteroids after a 3-week, 2-week, and 1-week tapering schedule to assess the safety of corticosteroid-free SC daratumumab administration. A total of 42 participants were treated. […] In conjunction, patients also received a 3-week, 2-week, or 1-week steroid tapering schedule (FIG. 2). The 3-week tapering schedule (corticosteroid-free by Cycle 1 Day 22) consisted of methylprednisolone (MP) given orally (PO)/IV pre-dose (Cycle 1 Day 1, 100 mg; Cycle 1 Day 8, 60 mg; Cycle 1 Day 15, 30 mg) and PO post-dose (Cycle 1 Day 1, 20 mg for 2 days; Cycle 1 Day 8, 20 mg for 1 day; Cycle 1 Day 15, 20 mg for 1 day). The 2-week tapering schedule (corticosteroid-free by Cycle 1 Day 15) consisted of MP given PO/IV pre-dose (Cycle 1 Day 1, 100 mg; Cycle 1 Day 8, 60 mg) and PO post-dose (Cycle 1 Day 1, 20 mg for 2 days; Cycle 1 Day 8, 20 mg for 1 day). The 1-week tapering schedule (corticosteroid-free by Cycle 1 Day 8) consisted of dexamethasone 20 mg administered IV pre-dose on Cycle 1 Day 1, without post-dose administration.
# The 3-week, 2-week and 1-week steroid tapering schedules were assessed by “3+3” design, followed by cohort expansion to approximately 15 patients (3-week and 2-week tapering cohorts) or 12 patients (1-week tapering cohort). The dose-limiting toxicity (DLT) assessment period in the 3-week, 2-week and 1-week tapering cohorts were Cycle 1 Day 1 through Cycle 2 Day 4, Cycle 1 Day 1 through Cycle 1 Day 25, and Cycle 1 Day 1 through Cycle 1 Day 11, respectively. […] Grade 3 or 4 IRRs only qualified as DLTs if they occurred during corticosteroid reduction or discontinuation (not during Cycle 1 Day 1). For the 3-week and 2-week groups, IRRs reported at Cycle 1 Day 1 were not considered DLTs, as corticosteroids had not yet been reduced or discontinued. Up to approximately 12 patients could be enrolled in the 1-week tapering schedule to assess safety, including IRRs.
# Safety assessments included treatment-emergent adverse events (TEAEs), serious adverse events, and IRRs. All toxicities were graded according to the National Cancer Institute's Common Terminology for the Classification of Adverse Events (NCI-CTCAE) Version 4.03 (National Cancer Institute. Common Terminology Criteria for Adverse Events (CTCAE): Version 4.03.).
# The safety and efficacy populations, defined as all patients who received ≥1 dose of study drug, was the primary population for analysis. […] The pharmacokinetic-evaluable population was defined as all patients who received ≥1 dose of study drug and provided ≥1 post-infusion pharmacokinetic sample. The immunogenicity population was defined as all patients who received ≥1 dose of study drug and provided ≥1 post-infusion immunogenicity sample.
substance,measurement,setting,value
"DARA SC: 1,800 mg daratumumab co-formulated with 30,000 U rHuPH20 (2,000 U/mL, 15 mL), manual subcutaneous injection","Lymphopenia, TEAE of Grade >3",[1],20.0%
same,Serious TEAEs in SOC General disorders and administration site conditions,[1],8.0%
same,TEAEs in SOC General disorders and administration site conditions,[1],72.0%
same,"Grade ≥3 TEAEs, participants",[2]; 1-week taper,33.3%
same,"Nausea, participants",[2]; 1-week taper,16.7%
same,Nervous system disorders,[2]; 1-week taper,16.7%
same,"Anemia, any grade TEAE",[2]; 1-week taper n=12,4 (33.3) n (%) and 4 (33.3%) n (%)
same,"Anemia, grade ≥3 TEAE",[2]; 1-week taper n=12,2 (16.7%) n (%) and 2 (16.7) n (%)
same,Any TEAE,[2]; 1-week taper n=12,12 (100)^ n (%) and 12 (100.0%) n (%)
same,Any grade ≥3 TEAE,[2]; 1-week taper n=12,4 (33.3) n (%) and 4 (33.3%) n (%)
same,"Arthralgia, any grade TEAE",[2]; 1-week taper n=12,3 (25.0) n (%) and 3 (25.0%) n (%)
same,"Asthenia, any grade TEAE",[2]; 1-week taper n=12,4 (33.3) n (%) and 4 (33.3%) n (%)
same,"Back pain, TEAE",[2]; 1-week taper n=12,2 (16.7%) n (%)
same,"Blood and lymphatic system disorders (SOC), TEAE",[2]; 1-week taper n=12,4 (33.3%) n (%)
same,"Blood and lymphatic system disorders (SOC), grade 3 or higher TEAE",[2]; 1-week taper n=12,2 (16.7%) n (%)
same,"Bone pain, TEAE",[2]; 1-week taper n=12,2 (16.7%) n (%)
same,"Bone pain, grade ≥3 TEAE",[2]; 1-week taper n=12,1 (8.3) n (%) and 1 (8.3%) n (%)
same,"Chills, TEAE",[2]; 1-week taper n=12,2 (16.7%) n (%)
same,"Constipation, TEAE",[2]; 1-week taper n=12,2 (16.7%) n (%)
same,"Cough, any grade TEAE",[2]; 1-week taper n=12,0 n (%)
same,"Decreased appetite, TEAE",[2]; 1-week taper n=12,1 (8.3%) n (%)
same,"Diarrhea, any grade TEAE",[2]; 1-week taper n=12,4 (33.3) n (%) and 4 (33.3%) n (%)
same,"Dizziness, any grade TEAE",[2]; 1-week taper n=12,0 n (%)
same,"Erythema, any grade TEAE",[2]; 1-week taper n=12,0 n (%)
same,"Fatigue, any grade TEAE",[2]; 1-week taper n=12,1 (8.3) n (%) and 1 (8.3%) n (%)
same,"Gastrointestinal disorders (SOC), TEAE",[2]; 1-week taper n=12,8 (66.7%) n (%)
same,"General disorders and administration site conditions (SOC), TEAE",[2]; 1-week taper n=12,9 (75.0%) n (%)
same,"Headache, any grade TEAE",[2]; 1-week taper n=12,1 (8.3) n (%) and 1 (8.3%) n (%)
same,"Lymphopenia, grade ≥3 TEAE",[2]; 1-week taper n=12,1 (8.3) n (%) and 1 (8.3%) n (%)
same,"Metabolism and nutrition disorders (SOC), TEAE",[2]; 1-week taper n=12,1 (8.3%) n (%)
same,"Muscle spasms, any grade TEAE",[2]; 1-week taper n=12,3 (25.0) n (%)
same,"Musculoskeletal and connective tissue disorders (SOC), TEAE",[2]; 1-week taper n=12,8 (66.7%) n (%)
same,"Musculoskeletal and connective tissue disorders (SOC), grade 3 or higher TEAE",[2]; 1-week taper n=12,1 (8.3%) n (%)
same,"Nasopharyngitis, any grade TEAE",[2]; 1-week taper n=12,1 (8.3) n (%) and 1 (8.3%) n (%)
same,"Nausea, any grade TEAE",[2]; 1-week taper n=12,2 (16.7) n (%) and 2 (16.7%) n (%)
same,"Nervous system disorders (SOC), TEAE",[2]; 1-week taper n=12,2 (16.7%) n (%)
same,"Neutropenia, grade ≥3 TEAE",[2]; 1-week taper n=12,0 n (%)
same,"Oropharyngeal pain, TEAE",[2]; 1-week taper n=12,0 n (%)
same,"Pain in extremity, any grade TEAE",[2]; 1-week taper n=12,3 (25.0) n (%) and 3 (25.0%) n (%)
same,Patients with a serious TEAE,[2]; 1-week taper n=12,4 (33.3%) n (%)
same,"Peripheral edema, any grade TEAE",[2]; 1-week taper n=12,4 (33.3) n (%) and 4 (33.3%) n (%)
same,"Pyrexia, any grade TEAE",[2]; 1-week taper n=12,3 (25.0) n (%) and 3 (25.0%) n (%)
same,"Respiratory, thoracic and mediastinal disorders (SOC), TEAE",[2]; 1-week taper n=12,1 (8.3%) n (%)
same,"Skin and subcutaneous tissue disorders (SOC), TEAE",[2]; 1-week taper n=12,0 n (%)
same,"Vomiting, TEAE",[2]; 1-week taper n=12,2 (16.7%) n (%)
same,TEAEs with an outcome of death,"[2]; 1-week taper, neither treatment-related",2 participants
same,Grade 5 TEAEs,"[2]; 1-week taper, staphylococcal pneumonia and pulmonary embolism",2 (16.7%) n (%)
same,"Grade ≥3 TEAEs, participants",[2]; 2-week taper,53.3%
same,"Nausea, participants",[2]; 2-week taper,20%
same,Nervous system disorders,[2]; 2-week taper,26.7%
same,TEAEs with an outcome of death,[2]; 2-week taper,No deaths
same,"Anemia, any grade TEAE",[2]; 2-week taper n=15,2 (13.3) n (%) and 2 (13.3%) n (%)
same,"Anemia, grade ≥3 TEAE",[2]; 2-week taper n=15,1 (6.7) n (%) and 1 (6.7%) n (%)
same,Any TEAE,[2]; 2-week taper n=15,15 (100)^ n (%) and 15 (100.0%) n (%)
same,Any grade ≥3 TEAE,[2]; 2-week taper n=15,8 (53.3) n (%) and 8 (53.3%) n (%)
same,"Arthralgia, any grade TEAE",[2]; 2-week taper n=15,4 (26.7) n (%) and 4 (26.7%) n (%)
same,"Asthenia, any grade TEAE",[2]; 2-week taper n=15,2 (13.3) n (%) and 2 (13.3%) n (%)
same,"Back pain, TEAE",[2]; 2-week taper n=15,3 (20.0%) n (%)
same,"Blood and lymphatic system disorders (SOC), TEAE",[2]; 2-week taper n=15,3 (20.0%) n (%)
same,"Blood and lymphatic system disorders (SOC), grade 3 or higher TEAE",[2]; 2-week taper n=15,3 (20.0%) n (%)
same,"Bone pain, TEAE",[2]; 2-week taper n=15,3 (20.0%) n (%)
same,"Bone pain, grade ≥3 TEAE",[2]; 2-week taper n=15,1 (6.7) n (%) and 1 (6.7%) n (%)
same,"Chills, TEAE",[2]; 2-week taper n=15,1 (6.7%) n (%)
same,"Constipation, TEAE",[2]; 2-week taper n=15,3 (20.0%) n (%)
same,"Cough, any grade TEAE",[2]; 2-week taper n=15,4 (26.7) n (%) and 4 (26.7%) n (%)
same,"Decreased appetite, TEAE",[2]; 2-week taper n=15,1 (6.7%) n (%)
same,"Diarrhea, any grade TEAE",[2]; 2-week taper n=15,3 (20.0) n (%) and 3 (20.0%) n (%)
same,"Dizziness, any grade TEAE",[2]; 2-week taper n=15,1 (6.7) n (%) and 1 (6.7%) n (%)
same,"Erythema, any grade TEAE",[2]; 2-week taper n=15,4 (26.7) n (%) and 4 (26.7%) n (%)
same,"Fatigue, any grade TEAE",[2]; 2-week taper n=15,4 (26.7) n (%) and 4 (26.7%) n (%)
same,"Gastrointestinal disorders (SOC), TEAE",[2]; 2-week taper n=15,7 (46.7%) n (%)
same,"General disorders and administration site conditions (SOC), TEAE",[2]; 2-week taper n=15,10 (66.7%) n (%)
same,"Headache, any grade TEAE",[2]; 2-week taper n=15,1 (6.7) n (%) and 1 (6.7%) n (%)
same,"Lymphopenia, grade ≥3 TEAE",[2]; 2-week taper n=15,0 n (%)
same,"Metabolism and nutrition disorders (SOC), TEAE",[2]; 2-week taper n=15,4 (26.7%) n (%)
same,"Muscle spasms, any grade TEAE",[2]; 2-week taper n=15,0 n (%)
same,"Musculoskeletal and connective tissue disorders (SOC), TEAE",[2]; 2-week taper n=15,9 (60.0%) n (%)
same,"Musculoskeletal and connective tissue disorders (SOC), grade 3 or higher TEAE",[2]; 2-week taper n=15,1 (6.7%) n (%)
same,"Nasopharyngitis, any grade TEAE",[2]; 2-week taper n=15,5 (33.3) n (%) and 5 (33.3%) n (%)
same,"Nausea, any grade TEAE",[2]; 2-week taper n=15,3 (20.0) n (%) and 3 (20.0%) n (%)
same,"Nervous system disorders (SOC), TEAE",[2]; 2-week taper n=15,4 (26.7%) n (%)
same,"Neutropenia, grade ≥3 TEAE",[2]; 2-week taper n=15,3 (20.0) n (%) and 3 (20.0%) n (%)
same,"Oropharyngeal pain, TEAE",[2]; 2-week taper n=15,3 (20.0%) n (%)
same,"Pain in extremity, any grade TEAE",[2]; 2-week taper n=15,1 (6.7) n (%) and 1 (6.7%) n (%)
same,Patients with a serious TEAE,[2]; 2-week taper n=15,6 (40.0%) n (%)
same,"Peripheral edema, any grade TEAE",[2]; 2-week taper n=15,0 n (%)
same,"Pyrexia, any grade TEAE",[2]; 2-week taper n=15,2 (13.3) n (%) and 2 (13.3%) n (%)
same,"Respiratory, thoracic and mediastinal disorders (SOC), TEAE",[2]; 2-week taper n=15,8 (53.3%) n (%)
same,"Skin and subcutaneous tissue disorders (SOC), TEAE",[2]; 2-week taper n=15,5 (33.3%) n (%)
